Patent publication US20140106352A1 (DUKE UNIVERSITY, published 2014)

Biological target: T1, nephrin (human, UniProt O60500 23-1241)
T1 construct: whole, on cells; Endogenous protein in fixed podocytes; also called NPHS1
T1 sequence (looked up): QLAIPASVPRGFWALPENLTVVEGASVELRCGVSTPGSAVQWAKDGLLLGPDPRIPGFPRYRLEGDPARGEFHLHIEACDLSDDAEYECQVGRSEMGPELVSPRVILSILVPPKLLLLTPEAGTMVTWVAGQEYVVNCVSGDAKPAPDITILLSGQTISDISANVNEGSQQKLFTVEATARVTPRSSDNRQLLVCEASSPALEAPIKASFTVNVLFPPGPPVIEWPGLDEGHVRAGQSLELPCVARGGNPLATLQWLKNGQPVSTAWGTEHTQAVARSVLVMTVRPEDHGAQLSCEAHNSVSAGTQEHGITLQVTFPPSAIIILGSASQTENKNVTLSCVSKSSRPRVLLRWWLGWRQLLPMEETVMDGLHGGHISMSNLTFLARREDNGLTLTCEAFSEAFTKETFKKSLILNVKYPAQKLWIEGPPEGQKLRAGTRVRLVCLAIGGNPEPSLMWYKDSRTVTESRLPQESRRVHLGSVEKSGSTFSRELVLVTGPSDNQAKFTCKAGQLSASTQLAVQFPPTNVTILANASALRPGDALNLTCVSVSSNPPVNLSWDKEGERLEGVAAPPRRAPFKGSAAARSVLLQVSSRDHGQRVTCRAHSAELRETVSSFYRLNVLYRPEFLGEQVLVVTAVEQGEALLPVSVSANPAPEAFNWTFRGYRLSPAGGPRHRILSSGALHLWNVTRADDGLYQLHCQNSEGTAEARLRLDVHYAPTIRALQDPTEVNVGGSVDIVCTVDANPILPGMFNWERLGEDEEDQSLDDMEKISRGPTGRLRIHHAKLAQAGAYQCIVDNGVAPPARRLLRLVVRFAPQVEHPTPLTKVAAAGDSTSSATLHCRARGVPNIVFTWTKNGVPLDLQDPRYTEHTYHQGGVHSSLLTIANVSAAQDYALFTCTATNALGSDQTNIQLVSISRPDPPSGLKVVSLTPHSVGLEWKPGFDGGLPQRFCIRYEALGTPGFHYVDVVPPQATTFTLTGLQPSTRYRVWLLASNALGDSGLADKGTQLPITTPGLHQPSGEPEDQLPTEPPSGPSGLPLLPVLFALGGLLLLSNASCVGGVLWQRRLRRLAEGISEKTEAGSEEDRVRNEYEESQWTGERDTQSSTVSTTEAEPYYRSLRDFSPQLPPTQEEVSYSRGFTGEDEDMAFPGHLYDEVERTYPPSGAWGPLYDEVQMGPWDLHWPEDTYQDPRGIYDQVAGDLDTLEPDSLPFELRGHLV
Experiment: only co-localisation by immunofluorescence in immortalized human podocytes (FIG. 3); no direct binding assay
Description: Endogenous anillin protein staining is shown in red. Co-immunolabeling for anti-CD2AP (A) anti-RhoA (B), anti-nephrin (C) anti-INF2 (D) and anti-F-actin are shown in green. Cell nuclei are stained with DAPI (blue). Anillin is strongly expressed in both the nucleus and cytoplasm and co-localizes with CD2AP, RhoA, nephrin, INF2, F-actin and TRPC6, in cultured immortalized human podocytes. IgG served as the control antibody (0).
Immortalized human podocytes were cultured on collagen I-coated coverslips (BD Biosciences) and treated as indicated. Cells were then fixed with 4% paraformaldehyde in PBS (Sigma). Podocytes were then washed twice with ice cold PBS prior to permeabilization with 0.1% Triton X-100 in PBS. Cells were then washed with ice cold PBS twice and blocked with buffer containing 5% goat serum prior to incubation with rabbit polyclonal Anillin antibody (Bethyl Laboratories, Montgomery, Tex.), mouse monoclonal Rho A antibody (Abeam), mouse monoclonal nephrin antibody (Abgent, Inc, San Diego, Calif.), and mouse polyclonal CD2AP antibody (Santa Cruz Biotechnologies, Santa Cruz, Calif.) overnight at 4° C. Cells were then washed with ice cold PBS and secondary Alexa Flora 488 antibody was applied (invitrogen) at a concentration of 1:1,000 for 1 hour at room temperature. […]

B1: anillin (ANLN), wild-type, endogenous in immortalized human podocytes (other)
chain: MDPFTEKLLERTRARRENLQRKMAERPTAAPRSMTHAKRARQPLSEASNQQPLSGGEEKSCTKPSPSKKRCSDNTEVEVSNLENKQPVESTSAKSCSPSPVSPQVQPQAADTISDSVAVPASLLGMRRGLNSRLEATAASSVKTRMQKLAEQRRRWDNDDMTDDIPESSLFSPMPSEEKAASPPRPLLSNASATPVGRRGRLANLAATICSWEDDVNHSFAKQNSVQEQPGTACLSKFSSASGASARINSSSVKQEATFCSQRDGDASLNKALSSSADDASLVNASISSSVKATSPVKSTTSITDAKSCEGQNPELLPKTPISPLKTGVSKPIVKSTLSQTVPSKGELSREICLQSQSKDKSTTPGGTGIKPFLERFGERCQEHSKESPARSTPHRTPIITPNTKAIQERLFKQDTSSSTTHLAQQLKQERQKELACLRGRFDKGNIWSAEKGGNSKSKQLETKQETHCQSTPLKKHQGVSKTQSLPVTEKVTENQIPAKNSSTEPKGFTECEMTKSSPLKITLFLEEDKSLKVTSDPKVEQKIEVIREIEMSVDDDDINSSKVINDLFSDVLEEGELDMEKSQEEMDQALAESSEEQEDALNISSMSLLAPLAQTVGVVSPESLVSTPRLELKDTSRSDESPKPGKFQRTRVPRAESGDSLGSEDRDLLYSIDAYRSQRFKETERPSIKQVIVRKEDVTSKLDEKNNAFPCQVNIKQKMQELNNEINMQQTVIYQASQALNCCVDEEHGKGSLEEAEAERLLLIATGKRTLLIDELNKLKNEGPQRKNKASPQSEFMPSKGSVTLSEIRLPLKADFVCSTVQKPDAANYYYLIILKAGAENMVATPLASTSNSLNGDALTFTTTFTLQDVSNDFEINIEVYSLVQKKDPSGLDKKKKTSKSKAITPKRLLTSITTKSNIHSSVMASPGGLSAVRTSNFALVGSYTLSLSSVGNTKFVLDKVPFLSSLEGHIYLKIKCQVNSSVEERGFLTIFEDVSGFGAWHRRWCVLSGNCISYWTYPDDEKRKNPIGRINLANCTSRQIEPANREFCARRNTFELITVRPQREDDRETLVSQCRDTLCVTKNWLSADTKEERDLWMQKLNQVLVDIRLWQPDACYKPIGKP
notes: Endogenous intracellular protein stained in fixed, permeabilised immortalized human podocytes
binding result: binds
